{"source": "paper PMC8543943", "about": "“Structure-guided steric hindrance engineering of Bacillus badius phenylalanine dehydrogenase for efficient L-homophenylalanine synthesis” (Biotechnology for Biofuels, 2021)", "proteins": {"B1": {"name": "BbPheDH (Pseudobacillus badius) (protein)", "chain": "SLVEKTSIIKDFTLFEKMSEHEQVVFCNDPATGLRAIIAIHDTTLGPALGGCRMQPYNSVEEALEDALRLSKGMTYKCAASDVDFGGGKAVIIGDPQKDKSPELFRAFGQFVDSLGGRFYTGTDMGTNMEDFIHAMKETNCIVGVPEAYGGGGDSSIPTAMGVLYGIKATNKMLFGKDDLGGVTYAIQGLGKVGYKVAEGLLEEGAHLFVTDINEQTLEAIQEKAKTTSGSVTVVASDEIYSQEADVFVPCAFGGVVNDETMKQFKVKAIAGSANNQLLTEDHGRHLADKGILYAPDYIVNSGGLIQVADELYEVNKERVLAKTKHIYDAILEVYQQAELDQITTMEAANRMCEQRMAARGRRNSFFTSSVKPKWDIRN", "notes": "His-tagged, full length, pET-28a (+), expressed in E. coli BL21 (DE3), Ni-NTA purified"}}, "test_in_all_cases": "purified protein", "assay_type_in_all_cases": "biochemical, Pseudobacillus badius", "key": {"purified protein [1]": {"substrate": "NC(=O)C1=CN([C@@H]2O[C@H](COP(=O)(O)OP(=O)(O)OC[C@H]3O[C@@H](n4cnc5c(N)ncnc54)[C@H](O)[C@@H]3O)[C@@H](O)[C@H]2O)C=CC1", "conditions": "reductive amination, 2 M NH4Cl/NH4OH pH 9.5, 20 mM 2-OPBA, 30 °C, varied: cofactor"}, "purified protein [2]": {"substrate": "O=C(O)C(=O)CCc1ccccc1", "conditions": "reductive amination, 2 M NH4Cl/NH4OH pH 9.5, 0.5 mM NADH, 30 °C"}, "purified protein [3]": {"substrate": "O=C(O)C(=O)Cc1ccccc1", "conditions": "reductive amination, 2 M NH4Cl/NH4OH pH 9.5, 0.5 mM NADH, 30 °C"}}}
{"protein": "B1", "values": [{"measurement": "Km", "setting": "purified protein [1]", "value": "65 ± 3", "unit": "µM"}, {"measurement": "kcat", "setting": "purified protein [1]", "value": "8 ± 1", "unit": "s⁻¹"}, {"measurement": "kcat/Km", "setting": "purified protein [1]", "value": "115000 ± 14000", "unit": "M⁻¹ s⁻¹"}, {"measurement": "Km", "setting": "purified protein [2]", "value": "600 ± 60", "unit": "µM"}, {"measurement": "kcat", "setting": "purified protein [2]", "value": "11 ± 1", "unit": "s⁻¹"}, {"measurement": "kcat/Km", "setting": "purified protein [2]", "value": "17000 ± 1000", "unit": "M⁻¹ s⁻¹"}, {"measurement": "Km", "setting": "purified protein [3]", "value": "300 ± 40", "unit": "µM"}, {"measurement": "kcat", "setting": "purified protein [3]", "value": "115 ± 6", "unit": "s⁻¹"}, {"measurement": "kcat/Km", "setting": "purified protein [3]", "value": "370000 ± 45000", "unit": "M⁻¹ s⁻¹"}]}
